Key:
Tsal1 [1] = biological target: T1, Tsal1 (Glossina morsitans morsitans, UniProt D3TS87 23-399); test: SPR; conditions: SPR (BIAcore), 50 mM sodium acetate pH 4.0, 150 mM NaCl, 3.5 mM EDTA, 0.005% Tween-20, 30 ul/min, Langmuir 1:1 fit; temperature not stated
T1 sequence: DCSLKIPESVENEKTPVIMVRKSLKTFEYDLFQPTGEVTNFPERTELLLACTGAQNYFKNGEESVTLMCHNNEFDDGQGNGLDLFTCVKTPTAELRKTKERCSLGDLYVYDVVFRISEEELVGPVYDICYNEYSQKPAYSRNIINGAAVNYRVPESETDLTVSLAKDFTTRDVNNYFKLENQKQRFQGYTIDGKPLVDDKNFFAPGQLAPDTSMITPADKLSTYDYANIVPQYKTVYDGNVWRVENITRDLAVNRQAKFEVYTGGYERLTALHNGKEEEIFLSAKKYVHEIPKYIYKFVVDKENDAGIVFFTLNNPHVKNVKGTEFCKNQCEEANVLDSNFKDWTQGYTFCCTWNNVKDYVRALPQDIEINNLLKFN

Tsal1 [2] = biological target: T1, Tsal1; test: SPR; text: 1.03 nM; ka 1.0E+06, kd 1.0E-03; SPR (BIAcore), 50 mM sodium acetate pH 4.0, 150 mM NaCl, 3.5 mM EDTA, 0.005% Tween-20, 30 ul/min, Langmuir 1:1 fit; temperature not stated; conditions: protein: recombinant; tags: pelB leader (pET22b), His tag implied by Ni-NTA; blunt

Molecule: dsDNA 161 bp
- Kd (Tsal1 [1]): 0.45 nM

Molecule: dsRNA 121 bp
- Kd (Tsal1 [1]): 2.8 nM

B1: dsDNA 25bp polyA/T (dsDNA)
DNA 1: AAAAAAAAAAAAAAAAAAAAAAAAA
DNA 2: TTTTTTTTTTTTTTTTTTTTTTTTT
- Kd (Tsal1 [2]): 1 nM

Source: publication PMC3479092, “Tsetse Salivary Gland Proteins 1 and 2 Are High Affinity Nucleic Acid Binding Proteins with Residual Nuclease Activity”
